± gives the standard error. For part of these data: Fewer inactive variants are shown than the library holds.
B1: glmS ribozyme (parent)
chain: AUAAAAGCGCCAGAACUACAGAAAUGUAGUUGACGAGGAGGAGGUUUAUCGAAUUUUCGGCGGAUGCCUCCAAA

How the values were obtained:
Settings in all cases: with glucosamine-6-phosphate
glucosamine-6-phosphate [1] = variants of: B1; test: kcat; higher = faster cleavage; RNA array
Outline: (§1)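 Using a hybridised Cy3 probe at 37 °C, barcoded ribozyme variants transcribed in situ by E. coli RNA polymerase on sequenced MiSeq chips were monitored across tiles imaged over ~14 h. The flow contained glucosamine-6-phosphate from 40 μM to 10 mM in HEPES/KCl/Mg(OAc)2 buffer. Signals were normalised to baseline and to non-cleaving reference variants before per-tile medians were fit to one- or two-exponential decays to yield kobs. Weighted Michaelis–Menten fits across concentrations gave kcat and KM.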

glucosamine-6-phosphate [2] = variants of: B1; test: self-cleavage kobs at 40 uM GlcN6P; higher = faster cleavage; RNA array
Outline: as §1

glucosamine-6-phosphate [3] = variants of: B1; test: self-cleavage kobs at 640 uM GlcN6P; higher = faster cleavage; RNA array
Outline: as §1

glucosamine-6-phosphate [4] = variants of: B1; test: self-cleavage kobs at 2500 uM GlcN6P; higher = faster cleavage; RNA array
Outline: as §1

glucosamine-6-phosphate [5] = variants of: B1; test: self-cleavage kobs at 10000 uM GlcN6P; higher = faster cleavage; RNA array
Outline: as §1

glucosamine-6-phosphate [6] = variants of: B1; test: KM; higher = weaker cofactor use; RNA array
Outline: as §1

glucosamine-6-phosphate [7] = variants of: B1; test: self-cleavage kobs at 160 uM GlcN6P; higher = faster cleavage; RNA array
Outline: as §1

Row | Variant | kcat (glucosamine-6-phosphate [1]) | self-cleavage kobs at 40 uM GlcN6P (glucosamine-6-phosphate [2]) | self-cleavage kobs at 640 uM GlcN6P (glucosamine-6-phosphate [3]) | self-cleavage kobs at 2500 uM GlcN6P (glucosamine-6-phosphate [4]) | self-cleavage kobs at 10000 uM GlcN6P (glucosamine-6-phosphate [5]) | KM (glucosamine-6-phosphate [6]) | self-cleavage kobs at 160 uM GlcN6P (glucosamine-6-phosphate [7])
1 | U55G G59C | 1.2e-05 ± 2.5e-06 s⁻¹ | – | – | – | – | – | –
2 | U45A G59A | 0.00059 ± 0.00018 s⁻¹ | < 1e-05 s⁻¹ | 2.71e-05 ± 1e-05 s⁻¹ | 6.8e-05 ± 3.3e-05 s⁻¹ | 0.000234 ± 3.9e-05 s⁻¹ | – | –
3 | A36G G63U C70A | 1.84e-05 ± 7.8e-06 s⁻¹ | – | – | – | – | – | –
4 | G35U G37C G60U | < 1e-05 s⁻¹ | < 1e-05 s⁻¹ | < 1e-05 s⁻¹ | – | – | – | –
5 | G41U A53G | 0.00129 ± 0.00028 s⁻¹ | 0.000167 ± 2.7e-05 s⁻¹ | 0.00133 ± 0.0002 s⁻¹ | 0.000959 ± 0.00015 s⁻¹ | 0.00153 ± 0.00029 s⁻¹ | 291 ± 120 µM | 0.000362 ± 7.8e-05 s⁻¹
6 | G32U A53U | 0.000907 ± 0.00012 s⁻¹ | – | 0.000111 ± 6.5e-06 s⁻¹ | 0.000361 ± 2.5e-05 s⁻¹ | 0.000603 ± 3.5e-05 s⁻¹ | 4580 ± 950 µM | 1.91e-05 ± 5.9e-06 s⁻¹
7 | G32U A53G | 0.00107 ± 0.00015 s⁻¹ | – | 0.000174 ± 1.8e-05 s⁻¹ | 0.000375 ± 5.5e-05 s⁻¹ | 0.000847 ± 7.5e-05 s⁻¹ | 3390 ± 750 µM | 5.42e-05 ± 9e-06 s⁻¹
8 | A48G U55A | 0.000106 ± 2.6e-06 s⁻¹ | – | – | 7.8e-05 ± 3.7e-05 s⁻¹ | 9.5e-05 ± 8.9e-06 s⁻¹ | 1160 ± 180 µM | –
9 | C50U U55G | 4.41e-05 ± 2.5e-06 s⁻¹ | – | 2.74e-05 ± 1.4e-05 s⁻¹ | 4.31e-05 ± 7.9e-06 s⁻¹ | 4.07e-05 ± 6.8e-06 s⁻¹ | 304 ± 130 µM | –
10 | G62U C67A | < 1e-05 s⁻¹ | < 1e-05 s⁻¹ | – | – | < 1e-05 s⁻¹ | – | –
11 | C10U U54A | 4.72e-05 ± 5.3e-06 s⁻¹ | < 1e-05 s⁻¹ | – | 4.32e-05 ± 2.1e-05 s⁻¹ | 4.37e-05 ± 9.7e-06 s⁻¹ | – | < 1e-05 s⁻¹
12 | A12U G66U | 0.00516 ± 0.00082 s⁻¹ | 0.000146 ± 1.8e-05 s⁻¹ | 0.00128 ± 0.00014 s⁻¹ | 0.00319 ± 0.00044 s⁻¹ | 0.00479 ± 0.00055 s⁻¹ | 1550 ± 380 µM | 0.000589 ± 0.0001 s⁻¹
13 | U55A U69A | 9.24e-05 ± 1e-05 s⁻¹ | 7.99e-05 ± 1.9e-05 s⁻¹ | 9.88e-05 ± 1.9e-05 s⁻¹ | 7.93e-05 ± 1.3e-05 s⁻¹ | 0.000129 ± 2.7e-05 s⁻¹ | – | 9.45e-05 ± 2.4e-05 s⁻¹
14 | A64G U65G | 0.00619 ± 0.0017 s⁻¹ | 5.76e-05 ± 1e-05 s⁻¹ | 0.000845 ± 0.00015 s⁻¹ | 0.00174 ± 0.00029 s⁻¹ | 0.00489 ± 0.00066 s⁻¹ | 4490 ± 1700 µM | 0.000262 ± 6e-05 s⁻¹
15 | A39G G40C | 9.61e-05 ± 1.3e-05 s⁻¹ | – | 4.2e-05 ± 1.4e-05 s⁻¹ | 0.000101 ± 1.8e-05 s⁻¹ | 8.35e-05 ± 1.4e-05 s⁻¹ | – | –
16 | U47G A64U | 2.76e-05 ± 3.5e-06 s⁻¹ | – | – | – | – | – | –
17 | C34G C68G | 2.55e-05 ± 1e-05 s⁻¹ | – | – | – | – | – | –

Row | Variant | kcat (glucosamine-6-phosphate [1]) | self-cleavage kobs at 40 uM GlcN6P (glucosamine-6-phosphate [2]) | self-cleavage kobs at 640 uM GlcN6P (glucosamine-6-phosphate [3]) | self-cleavage kobs at 2500 uM GlcN6P (glucosamine-6-phosphate [4]) | self-cleavage kobs at 10000 uM GlcN6P (glucosamine-6-phosphate [5]) | KM (glucosamine-6-phosphate [6]) | self-cleavage kobs at 160 uM GlcN6P (glucosamine-6-phosphate [7])
18 | A42G A64G | 0.024 ± 0.0071 s⁻¹ | 0.000694 ± 0.00014 s⁻¹ | 0.00754 ± 0.0017 s⁻¹ | 0.0422 ± 0.015 s⁻¹ | 0.0194 ± 0.0055 s⁻¹ | 1370 ± 520 µM | 0.0024 ± 0.00059 s⁻¹
19 | C50U A64C | < 1e-05 s⁻¹ | – | < 1e-05 s⁻¹ | – | < 1e-05 s⁻¹ | – | < 1e-05 s⁻¹
20 | A52G U55C | 0.00205 ± 0.00032 s⁻¹ | 3.24e-05 ± 8.4e-06 s⁻¹ | 0.000325 ± 5e-05 s⁻¹ | 0.000739 ± 9.4e-05 s⁻¹ | 0.00158 ± 0.00017 s⁻¹ | 3680 ± 850 µM | 8.26e-05 ± 1.2e-05 s⁻¹
21 | A52G U55G | 0.00167 ± 0.00021 s⁻¹ | – | 0.000252 ± 2.5e-05 s⁻¹ | 0.000786 ± 7.4e-05 s⁻¹ | 0.00124 ± 0.00013 s⁻¹ | 3170 ± 560 µM | 8.73e-05 ± 8.7e-06 s⁻¹
22 | G29A U47C | 0.000269 ± 1.9e-05 s⁻¹ | – | 8.17e-05 ± 2.3e-05 s⁻¹ | 0.000223 ± 9.2e-05 s⁻¹ | 0.000233 ± 3.2e-05 s⁻¹ | 1400 ± 310 µM | –
23 | A64G C67A | 0.00338 ± 0.00073 s⁻¹ | 9.53e-05 ± 1.7e-05 s⁻¹ | 0.000794 ± 0.00012 s⁻¹ | 0.0018 ± 0.00034 s⁻¹ | 0.00346 ± 0.00059 s⁻¹ | 1730 ± 520 µM | 0.000303 ± 4.4e-05 s⁻¹
24 | U55G | 0.0523 ± 0.0043 s⁻¹ | 0.000889 ± 2.1e-05 s⁻¹ | 0.0103 ± 0.00037 s⁻¹ | 0.0271 ± 0.0015 s⁻¹ | 0.0436 ± 0.0021 s⁻¹ | 2390 ± 240 µM | 0.00312 ± 0.00021 s⁻¹
25 | U55C | 0.0394 ± 0.0032 s⁻¹ | 0.000797 ± 1.8e-05 s⁻¹ | 0.0091 ± 0.00035 s⁻¹ | 0.0201 ± 0.001 s⁻¹ | 0.0349 ± 0.0014 s⁻¹ | 2000 ± 200 µM | 0.0027 ± 0.00018 s⁻¹
26 | A14C A52G U57G | 0.000174 ± 4.6e-05 s⁻¹ | – | 8.13e-05 ± 1.9e-05 s⁻¹ | 8.49e-05 ± 2.9e-05 s⁻¹ | 0.000182 ± 3.1e-05 s⁻¹ | – | –
27 | A33U U57A | < 1e-05 s⁻¹ | – | – | – | – | – | –
28 | G32C C58U | 3.33e-05 ± 5.5e-06 s⁻¹ | – | – | – | – | – | –
29 | A14C U31C | 0.00408 ± 0.0011 s⁻¹ | 8.42e-05 ± 1.1e-05 s⁻¹ | 0.000748 ± 9e-05 s⁻¹ | 0.00178 ± 0.00024 s⁻¹ | 0.00399 ± 0.00045 s⁻¹ | 2330 ± 860 µM | 0.000307 ± 4.3e-05 s⁻¹
30 | A15G G32C | 0.000278 ± 6.2e-05 s⁻¹ | – | – | 6.16e-05 ± 1.6e-05 s⁻¹ | 0.000154 ± 2e-05 s⁻¹ | 8170 ± 3300 µM | –
31 | A36U U54A | < 1e-05 s⁻¹ | – | – | – | – | – | –
32 | C11A A52G C58G | 1.09e-05 ± 2.8e-06 s⁻¹ | – | – | – | – | – | < 1e-05 s⁻¹
33 | U54G C58A | 0.000823 ± 5.9e-05 s⁻¹ | – | 0.00015 ± 2.9e-05 s⁻¹ | 0.000361 ± 0.00012 s⁻¹ | 0.000646 ± 0.00011 s⁻¹ | 2870 ± 360 µM | –
